Source: PMC5393055 (Genes & Development, 2017)

Biological target: T1, full-length GST-SUUR (Drosophila, UniProt Q9VTE2 1-962)
T1 sequence (looked up): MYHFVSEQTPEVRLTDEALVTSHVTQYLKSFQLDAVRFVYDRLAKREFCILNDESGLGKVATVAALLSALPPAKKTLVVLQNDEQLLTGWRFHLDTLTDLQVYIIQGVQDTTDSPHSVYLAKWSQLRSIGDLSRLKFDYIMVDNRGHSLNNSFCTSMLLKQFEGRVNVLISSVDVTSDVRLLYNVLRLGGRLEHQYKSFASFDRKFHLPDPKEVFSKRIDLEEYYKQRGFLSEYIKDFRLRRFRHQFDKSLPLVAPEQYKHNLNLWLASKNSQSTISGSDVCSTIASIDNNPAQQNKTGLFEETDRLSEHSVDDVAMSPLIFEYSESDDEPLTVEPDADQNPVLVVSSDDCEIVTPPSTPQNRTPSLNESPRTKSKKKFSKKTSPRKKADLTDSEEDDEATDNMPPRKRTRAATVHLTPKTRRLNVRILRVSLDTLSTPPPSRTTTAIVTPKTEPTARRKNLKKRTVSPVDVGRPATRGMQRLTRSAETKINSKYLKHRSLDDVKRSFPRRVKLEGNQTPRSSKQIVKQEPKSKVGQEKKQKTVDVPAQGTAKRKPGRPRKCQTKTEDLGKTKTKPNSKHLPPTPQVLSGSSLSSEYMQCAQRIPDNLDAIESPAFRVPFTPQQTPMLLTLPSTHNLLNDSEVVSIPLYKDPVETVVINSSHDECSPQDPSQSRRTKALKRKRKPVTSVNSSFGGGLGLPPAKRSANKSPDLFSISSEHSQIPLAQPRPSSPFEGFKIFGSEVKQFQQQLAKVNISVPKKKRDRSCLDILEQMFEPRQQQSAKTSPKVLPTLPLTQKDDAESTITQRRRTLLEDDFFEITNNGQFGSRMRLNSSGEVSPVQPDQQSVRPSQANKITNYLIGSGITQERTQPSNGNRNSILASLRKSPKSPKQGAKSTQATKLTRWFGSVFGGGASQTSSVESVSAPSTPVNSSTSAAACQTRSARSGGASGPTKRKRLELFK
Test: pull-down

binding result: binds
B1: recombinant untagged full-length H1 (natural protein, Drosophila, UniProt P02255 1-256, looked up)
chain: MSDSAVATSASPVAAPPATVEKKVVQKKASGSAGTKAKKASATPSHPPTQQMVDASIKNLKERGGSSLLAIKKYITATYKCDAQKLAPFIKKYLKSAVVNGKLIQTKGKGASGSFKLSASAKKEKDPKAKSKVLSAEKKVQSKKVASKKIGVSSKKTAVGAADKKPKAKKAVATKKTAENKKTEKAKAKDAKKTGIIKSKPAATKAKVTAAKPKAVVAKASKAKPAVSAKPKKTVKKASVSATAKKPKAKTTAAKK
